B1: single domain antibody AHF21719 (Fc fusion)
chain: EVQLVESGGGLVQPGGSLRLSCAASGYISRFYAMGWYRQAPGKQRELVARISSGGWTYYADSVKGRFTISIDNSKNTLYLQMNSLRAEDTAVYYCNARNLWGQGTLVTVSS
notes: Fc format is inferred; not shown: human IgG1 Fc; vector and li
B2: single domain antibody AHF21711 (Fc fusion)
chain: B1 chain with G26H, Y27S, M34I, G54M, W56R
notes: as for B1
B3: single domain antibody AHP15662-VHH4-Variant2 (Fc fusion)
chain: B1 chain with G26Y, Y27F, M34V
notes: as for B1
B4: single domain antibody AHP15662-VHH4-Variant3 (Fc fusion)
chain: B1 chain with G26H, M34V
notes: as for B1
B5: single domain antibody AHF21720 (Fc fusion)
chain: B1 chain with G54L
notes: as for B1
B6: single domain antibody AHF21721 (Fc fusion)
chain: B1 chain with Y27F, G54M
notes: as for B1
B7: single domain antibody AHP15662-VHH4-Variant1 (Fc fusion)
chain: B1 chain with G26Y, M34V
notes: as for B1
B8: single domain antibody AHP15485-VHH4-Variant2 (Fc fusion)
chain: EVQLVESGGGLVQPGGSLRLSCAASGRSFSSFQMGWFRQAPGKEREFVAASGWSGGPTYYWDSVIGRFTISTDNSKNTLYLQMNSLRAEDTAVYYCYEDRVLSGRPVRYWGQGTLVTVSS
notes: as for B1
B9: single domain antibody AHP15485-VHH4-Variant1 (Fc fusion)
chain: B8 chain with S31N
notes: as for B1
B10: single domain antibody AHF22013 (Fc fusion)
chain: B8 chain with P106H
notes: as for B1
B11: single domain antibody AHF22018 (Fc fusion)
chain: B8 chain with V64W, I65K, P106W
notes: not shown: human IgG1 Fc; vector and li

Where a chain is given by its changes, count along the chain named.

The target in the first assay is T1, human ROR1 Frizzled-His domain protein (amino acid sequence at positions 165-305, Acrobiosystems, RO1-H5222) (human, UniProt Q01973 165-305).
T1 construct: also called Human ROR1 Frizzled-His protein; not shown: His tag
T1 sequence (Q01973 165-305 limits assumed, form in doubt): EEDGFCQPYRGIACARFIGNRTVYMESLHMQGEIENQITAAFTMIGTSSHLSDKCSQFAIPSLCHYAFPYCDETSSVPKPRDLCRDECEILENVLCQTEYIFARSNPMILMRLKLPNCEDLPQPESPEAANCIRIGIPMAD
In words: SPR Biacore T200, method as Example 6 (antibody Fc-captured, antigen as analyte). The method, then: (§1) The affinity of purified antibodies for human ROR1-related proteins was determined separately using the surface plasmon resonance (SPR) biosensor Biacore T200 (GE Healthcare). The antibodies were immobilized on the sensor chip by the Fc capture method. Human ROR1-related proteins were used as analytes. Data for dissociation (kd) and association (ka) rate constants were obtained using the Biacore T200 evaluation software. The equilibrium dissociation constant (KD) was calculated from the ratio of kd to ka.
(§2) According to the mutation status of the improved clones in the precise saturation mutation library, the combinatorial mutations and the relevant primers for library construction for the second round were designed. The combinatorial mutation library construction was performed still using the prokaryotic soluble expression plasmid of the humanized single domain antibody as the template. The subsequent screening process was the same as that for the precise saturation mutation library. Finally, the top 5 or 7 clones ranked by the improvement fold in affinity were selected for recombinant verification. 5 clones with improved affinity (AHF22016, AHF22018, AHF22013, AHP15485-VHH4-Variant1, and AHP15485-VHH4-Variant2) were obtained from the humanized antibody AHP15485 through affinity maturation screening, and were subjected to eukaryotic expression and purification, as well as subsequent affinity detection at various concentrations. 7 clones (AHP15662-VHH4-Variant1, AHP15662-VHH4-Variant2, AHP15662-VHH4-Variant3, AHF21711, AHF21719, AHF21720, and AHF21721) were obtained from AHP15662-VHH4.
Turning to B1, the affinity, expressed as Kd, was 21.6 nM; the koff amounted to 0.00169 s⁻¹; the kon came out at 78100 M⁻¹ s⁻¹.
B2 yielded a Kd of 19.3 nM, a koff of 0.00174 s⁻¹ and a kon of 90100 M⁻¹ s⁻¹.
For the molecule B3, the Kd is 75.3 nM, the koff amounted to 0.0119 s⁻¹ and the kon is 159000 M⁻¹ s⁻¹.
With B4, the Kd amounted to 39.5 nM, the koff was determined as 0.0062 s⁻¹ and the kon came to 157000 M⁻¹ s⁻¹.
For B5, in that order: 16.9 nM, 0.00124 s⁻¹ and 73600 M⁻¹ s⁻¹.
Consider B6, for which binding was put at a Kd of 15.6 nM, the koff was determined as 0.00113 s⁻¹ and the kon came out at 72500 M⁻¹ s⁻¹.
For B7, in that order: 46.3 nM, 0.00701 s⁻¹ and 151000 M⁻¹ s⁻¹.

The next assay deals with T2, human ROR1-His protein (fused with a His protein tag, Acrobiosystems, RO1-H522y) (human, UniProt Q01973 30-403).
T2 construct: also called recombinant human ROR1-His protein; not shown: His tag
T2 sequence (Q01973 30-403 limits assumed): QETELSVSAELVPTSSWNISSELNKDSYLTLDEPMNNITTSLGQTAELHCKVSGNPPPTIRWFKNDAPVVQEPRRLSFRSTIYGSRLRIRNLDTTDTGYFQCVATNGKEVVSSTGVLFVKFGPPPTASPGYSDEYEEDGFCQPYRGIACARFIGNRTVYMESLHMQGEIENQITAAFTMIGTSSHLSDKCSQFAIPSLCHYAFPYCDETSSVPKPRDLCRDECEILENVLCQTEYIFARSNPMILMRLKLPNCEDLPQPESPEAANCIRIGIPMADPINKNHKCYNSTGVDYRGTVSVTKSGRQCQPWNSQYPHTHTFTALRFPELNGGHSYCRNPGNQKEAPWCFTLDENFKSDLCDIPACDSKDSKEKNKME
Described as above. As for the experimental part: as §1, §2
Turning to B8, the Kd worked out at 21.4 nM, the koff worked out at 0.0018 s⁻¹ and the kon turned out to be 84000 M⁻¹ s⁻¹.
In the same order, the values of B9 are 184 nM, 0.0153 s⁻¹ and 83100 M⁻¹ s⁻¹.
In the same order, the values of B10 are 8.91 nM, 0.000374 s⁻¹ and 42000 M⁻¹ s⁻¹.
For B11, in that order: 20.3 nM, 0.000884 s⁻¹ and 43500 M⁻¹ s⁻¹.

These data come from patent US20260158064A1 (NANJING PROBIO BIOTECH, published 2026).
